The target of this experiment is E2-E1 heterodimer of WT Sindbis virus (strain TE12) (Sindbis virus) (UniProt P03316). The experiment in a line: cryo-EM structure.

By stoichiometry N is commonly meant a count of units in the complex or per binding partner. Consider “E2-E1 heterodimer of WT Sindbis virus (strain TE12) (from UniProt P03316 807-1245) (complex)”, for which the stoichiometry N turned out to be 3.

The values above are taken from article doi:10.1101/2021.09.02.458808.
